In US20230310634A1, “ANTI-HUMAN VISTA ANTIBODIES AND USE THEREOF” (IMMUNEXT, INC., priority 2020, published 2023):

Key:
[1] = target: CD163 on human cells (human) (UniProt Q86VB7); assay: flow cytometry with quantification beads, CD14+ monocytes of human PBMC, n=5 donors (one outlier donor)
[2] = target: CD163 on human cells (human) (UniProt Q86VB7); assay: flow cytometry with quantification beads, CD14+ monocytes in human whole blood, n=3 donors
[3] = target: T1, human VISTA on cells (human) (UniProt Q9H7M9); assay: flow cytometry, AF488-labelled control antibody on human monocytes, MFI normalised to INX200 at 0 min
T1 sequence: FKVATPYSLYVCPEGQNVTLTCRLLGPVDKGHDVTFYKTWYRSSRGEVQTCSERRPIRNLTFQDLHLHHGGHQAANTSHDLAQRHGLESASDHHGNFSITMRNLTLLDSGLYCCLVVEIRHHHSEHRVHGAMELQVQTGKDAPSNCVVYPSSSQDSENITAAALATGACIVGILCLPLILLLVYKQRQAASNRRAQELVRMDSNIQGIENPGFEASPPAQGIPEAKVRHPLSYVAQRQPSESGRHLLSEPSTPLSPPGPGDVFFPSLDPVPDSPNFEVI

Chain of CD163 on human cells (human) (Q86VB7 42-1156): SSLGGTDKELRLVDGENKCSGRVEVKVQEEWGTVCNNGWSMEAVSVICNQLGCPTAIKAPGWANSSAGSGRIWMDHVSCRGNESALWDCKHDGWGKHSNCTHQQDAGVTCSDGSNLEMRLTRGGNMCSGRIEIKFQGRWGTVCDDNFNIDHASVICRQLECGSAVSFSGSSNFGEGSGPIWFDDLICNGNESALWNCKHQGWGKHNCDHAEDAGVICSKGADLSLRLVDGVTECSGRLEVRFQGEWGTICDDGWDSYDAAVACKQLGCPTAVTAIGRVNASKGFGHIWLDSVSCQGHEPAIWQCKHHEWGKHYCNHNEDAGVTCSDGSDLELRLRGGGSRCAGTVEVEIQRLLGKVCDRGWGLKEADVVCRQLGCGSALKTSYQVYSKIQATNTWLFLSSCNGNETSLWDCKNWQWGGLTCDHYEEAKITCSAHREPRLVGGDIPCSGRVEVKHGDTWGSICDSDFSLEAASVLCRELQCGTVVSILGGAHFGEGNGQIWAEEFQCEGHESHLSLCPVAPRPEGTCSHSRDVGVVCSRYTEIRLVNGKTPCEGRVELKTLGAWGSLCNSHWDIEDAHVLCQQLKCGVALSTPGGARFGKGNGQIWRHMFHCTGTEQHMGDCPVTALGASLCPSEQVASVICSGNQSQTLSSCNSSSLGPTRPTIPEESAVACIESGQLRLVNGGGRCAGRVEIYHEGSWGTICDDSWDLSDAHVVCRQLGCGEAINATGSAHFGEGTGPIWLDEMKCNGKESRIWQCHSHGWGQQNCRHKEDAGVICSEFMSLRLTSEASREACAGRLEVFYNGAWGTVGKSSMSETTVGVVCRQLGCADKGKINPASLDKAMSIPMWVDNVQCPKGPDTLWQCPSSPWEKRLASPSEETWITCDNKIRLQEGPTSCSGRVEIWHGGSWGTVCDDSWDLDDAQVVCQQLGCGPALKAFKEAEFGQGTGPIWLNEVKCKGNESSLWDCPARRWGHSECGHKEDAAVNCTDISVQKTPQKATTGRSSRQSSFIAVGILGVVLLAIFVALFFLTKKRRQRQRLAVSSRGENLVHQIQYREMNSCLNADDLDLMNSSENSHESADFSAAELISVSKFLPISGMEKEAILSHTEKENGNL

CD163 Alexa Fluor 647 clone GHI/61 (antibody)
antibody binding capacity (ABC) (ABC (molecules per cell)) [1]: 36700
antibody binding capacity (ABC) [2]: 13100 molecules

Human IgG1si (antibody)
nonspecific signal at 0 min relative to INX200 (% of MFI) [3]: 5.9%
